Legend:
[1] = target: GST-ErpB (Borrelia burgdorferi strain B31); test: SPR
[2] = target: GST-ErpQ (Borrelia burgdorferi strain B31); test: SPR
[3] = target: C1r enzyme (activated form of human C1r) (human) (UniProt P00736); test: ELISA
[4] = target: C1s enzyme (activated form of human C1s) (human) (UniProt P09871); test: ELISA
[5] = target: human C1 complex (C1qC1r2C1s2) (human) (UniProt P02745); test: ELISA
Chain of human C1 complex (C1qC1r2C1s2) (human) (P02745 whole entry, looked up, one chain of several): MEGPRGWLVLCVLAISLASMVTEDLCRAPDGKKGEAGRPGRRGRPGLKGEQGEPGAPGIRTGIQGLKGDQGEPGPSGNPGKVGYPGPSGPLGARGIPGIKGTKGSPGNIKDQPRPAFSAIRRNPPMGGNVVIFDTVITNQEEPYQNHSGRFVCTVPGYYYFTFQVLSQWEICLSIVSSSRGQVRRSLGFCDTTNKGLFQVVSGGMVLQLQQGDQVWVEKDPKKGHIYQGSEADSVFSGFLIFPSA

Chain of C1s enzyme (activated form of human C1s) (human) (P09871 16-437, chain 1 of 2): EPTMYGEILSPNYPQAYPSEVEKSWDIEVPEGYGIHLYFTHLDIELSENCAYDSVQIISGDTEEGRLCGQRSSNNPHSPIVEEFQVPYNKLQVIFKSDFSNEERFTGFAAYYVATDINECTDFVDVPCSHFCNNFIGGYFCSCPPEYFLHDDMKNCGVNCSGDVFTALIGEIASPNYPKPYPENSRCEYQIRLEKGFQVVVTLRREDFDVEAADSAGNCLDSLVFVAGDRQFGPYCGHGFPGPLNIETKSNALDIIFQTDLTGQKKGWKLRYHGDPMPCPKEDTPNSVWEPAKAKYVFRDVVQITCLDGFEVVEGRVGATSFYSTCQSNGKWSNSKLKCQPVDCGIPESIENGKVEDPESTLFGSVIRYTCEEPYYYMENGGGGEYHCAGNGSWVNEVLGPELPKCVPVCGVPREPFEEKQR
Chain of C1s enzyme (activated form of human C1s) (human) (P09871 438-688, chain 2 of 2): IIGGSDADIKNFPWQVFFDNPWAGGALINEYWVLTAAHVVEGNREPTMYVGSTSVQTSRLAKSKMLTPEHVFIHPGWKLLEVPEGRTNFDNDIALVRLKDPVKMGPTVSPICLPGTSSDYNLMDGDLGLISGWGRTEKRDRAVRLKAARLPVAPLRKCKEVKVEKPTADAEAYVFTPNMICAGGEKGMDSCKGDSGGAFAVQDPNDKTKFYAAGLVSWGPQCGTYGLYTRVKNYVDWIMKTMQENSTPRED
Chain of C1r enzyme (activated form of human C1r) (human) (P00736 18-463, chain 1 of 2): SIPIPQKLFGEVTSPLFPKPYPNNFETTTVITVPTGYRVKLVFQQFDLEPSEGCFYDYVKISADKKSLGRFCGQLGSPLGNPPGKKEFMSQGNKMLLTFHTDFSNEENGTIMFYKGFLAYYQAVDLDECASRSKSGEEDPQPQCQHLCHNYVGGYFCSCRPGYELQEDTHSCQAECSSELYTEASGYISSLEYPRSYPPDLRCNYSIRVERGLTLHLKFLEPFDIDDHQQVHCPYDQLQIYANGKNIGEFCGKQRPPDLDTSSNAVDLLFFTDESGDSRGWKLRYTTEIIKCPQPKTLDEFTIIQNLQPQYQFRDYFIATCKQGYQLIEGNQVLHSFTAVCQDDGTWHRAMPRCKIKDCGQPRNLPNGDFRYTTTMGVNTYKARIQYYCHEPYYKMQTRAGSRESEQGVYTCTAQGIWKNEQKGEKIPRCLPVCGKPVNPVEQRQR
Chain of C1r enzyme (activated form of human C1r) (human) (P00736 464-705, chain 2 of 2): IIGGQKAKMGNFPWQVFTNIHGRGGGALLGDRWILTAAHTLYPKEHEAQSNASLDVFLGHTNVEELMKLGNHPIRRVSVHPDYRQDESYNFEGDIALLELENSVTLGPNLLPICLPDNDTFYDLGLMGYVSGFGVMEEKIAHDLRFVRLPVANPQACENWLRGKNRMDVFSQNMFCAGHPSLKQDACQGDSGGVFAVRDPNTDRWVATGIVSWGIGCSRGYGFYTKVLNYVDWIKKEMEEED
Chain of human C1 complex (C1qC1r2C1s2) (P02746 whole entry, looked up): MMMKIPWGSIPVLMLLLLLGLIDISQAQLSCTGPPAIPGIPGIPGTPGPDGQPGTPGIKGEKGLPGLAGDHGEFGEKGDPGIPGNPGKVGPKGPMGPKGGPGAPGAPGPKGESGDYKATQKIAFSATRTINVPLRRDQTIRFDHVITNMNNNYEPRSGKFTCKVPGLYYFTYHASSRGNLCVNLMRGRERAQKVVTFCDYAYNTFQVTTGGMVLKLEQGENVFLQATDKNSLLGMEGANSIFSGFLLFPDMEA
Chain of human C1 complex (C1qC1r2C1s2) (P02747 whole entry, looked up): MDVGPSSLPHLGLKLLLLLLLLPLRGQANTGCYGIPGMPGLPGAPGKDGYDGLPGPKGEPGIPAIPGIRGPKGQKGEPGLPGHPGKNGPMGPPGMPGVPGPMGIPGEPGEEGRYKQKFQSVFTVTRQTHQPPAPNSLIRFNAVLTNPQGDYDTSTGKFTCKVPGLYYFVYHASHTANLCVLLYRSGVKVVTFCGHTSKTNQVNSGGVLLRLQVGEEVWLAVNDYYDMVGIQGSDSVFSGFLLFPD
Chain of human C1 complex (C1qC1r2C1s2) (P02745 whole entry, looked up): as the sequence (P02745 whole entry, looked up, one chain of several) above

Substance	Kd [1] [nM]	Kd [2] [nM]	Kd [3] [nM]	Kd [4] [nM]	Kd [5] [nM]
human C1 complex (C1qC1r2C1s2) (from UniProt P02745 23-245; P02746 28-253; P02747 29-245)	5.6	–	–	–	–
C1s proenzyme (human)	270	170	–	–	–
GST-ErpQ (natural protein)	–	–	11	4.7	3.8
GST-ErpB (natural protein)	–	–	41	6.7	3.4

— paper doi:10.1101/2021.09.23.461563
